Measurements as given in patent publication US20190161551A1 (Regeneron, published 2019).

B1: M2aM14179N (antibody, mouse IgG2a, kappa, V domains shown)
VH: EVQLQQSGPELVKPGASVKISCKASGYTLTDYYMNWVKQSHGKSLEWIGDINPNNGGTSYNQKFKGKATLTVDKSSSTAYMELRSLTSEDSAVYYCARGAYYSNYFDYWGQGTTLTVSS
VL: DIVMSQSPSSLAVSAGEKVTMSCKSSQSLLNSRTRKNYLAWYQQKPGQSPKLLIYWASTRESGVPDRFTGSGSGTDFTLTISSVQAEDLAVYYCKQSYILFTFGSGTQLEIKR
notes: Anti-mouse TrkB antibody from hybridoma, mouse IgG2a Fc; also called surrogate anti-mouse TrkB antibody
B2: H4H9814P (antibody, human IgG4 S228P, kappa, V domains shown)
VH: EVQLVESGGGLVQPGGSLKLSCTASGFTFSGSVIHWVRQASGKGLEWIGRIRNKANSYATAYGASVTGRFTISRDDSKNTAYLQMNSLKTEDTAVYYCTFPGVVGRGGFDYWGQGTLVTVSS
VL: DIVMTQSPDSLAVSLGEGATINCMSSQSVLFSSNNKNYLAWYQQKPGQPPKLLFYWASTRESGVPDRFGGSGSGTDFSLTINSLQTEDVAVYYCLQYYSIPWTFGQGTKVEIKR
notes: Fully human anti-human TrkB agonist antibody, human IgG4 Fc; also called H4H9814P-L1
B3: H4H9780P (antibody, human IgG4 S228P, kappa, V domains shown)
VH: QVQLVESGGGVVQPGRSLRLSCAASGFSFSSFGMHWVRQAPGKGLEWVSVISYDGINTYYTDSVKGRFTISRDNSKNTLYLQMNGLRAEDTALYYCVQGSIGTVFEYWGQGTLVTVSS
VL: DIQMTQSPSSLSASVGDRVTITCRASQGISNYLAWYQQKPGKVPKLLIYAASTLQSGVPSRFGGSGSGTDFTLTISSLQPEDVATYYCQKYTSAPFTFGPGTKVDIKR
notes: Fully human anti-human TrkB agonist antibody, human IgG4 Fc; also called H4H9780P-L1
B4: H4H9816P2 (antibody, human IgG4 S228P, kappa, V domains shown)
VH: EVQLVESGGGLVQPGGSLTLSCAASGFNFRDYEMIWVRQTPGKGLEWISYISNSGYTIYYADSVKGRFTISRDNARNSIYLQVNSLRAEDTAVYYCSRRTTMIRGIRAYYYYGLDVWGQGTTVTVSS
VL: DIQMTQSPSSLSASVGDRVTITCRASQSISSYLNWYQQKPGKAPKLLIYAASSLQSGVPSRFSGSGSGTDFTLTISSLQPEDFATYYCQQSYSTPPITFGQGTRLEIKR
notes: Fully human anti-human TrkB agonist antibody, human IgG4 Fc; also called H4H9816P-L1
B5: M2aM14173N (antibody, mouse IgG2a, kappa, V domains shown)
VH: NVSLVESGGGSVKPGGSLQLSCAASGFTFSSSAMSWIRQTPEMRLEWVATISDRGSYTYYPDSVEGRFTISRDNAKNILYLQMSHLMSEDTAMYYCARGKGEKAYYTAFFAYWGQGSLVTVSA
VL: DIQMTQSPASLSASVGETVTITCRASENIYSYLAWYQQKPGKSPHLLVHNAETLAEGVPSRFSGSGSGPQFSLKINSLQPGDSGTYYCQHHYSSPWTFGGGTKLEIKR
notes: as for B1
B6: H1M8037C (antibody, mouse IgG1, kappa, V domains shown)
VH: QVQLVQSGAEVKKPGASVKVSCKASGYTFTNYDIIWVRQAPGQGLEWMGYINPYNDGTKYNEKFKGRVTMTRDTSTSTVYMELSSLRSEDTAVYYCARLLKYRRFRYYAIDYWGQGTTVTVSS
VL: DIQMTQSPSSLSASVGDRVTITCRTSENVYSNLAWYQQKPGKAPKLLIYAASNLQSGVPSRFSGSGSGTDYTFTISSLQPEDIATYYCQHFWGSPFTFGQGTKLEIKR
notes: captured by anti-mFc in SPR; also called Comparator; comparator anti-TrkB monoclonal antibody

Assays:
mouse TrkB.hFc [1] = target: T1, mouse TrkB.hFc (mouse); test: BLI Octet, captured mTrkB.hFc, 300 nM mAb (NT-4 run)
T1 construct: also called mTrkB.hFc; mTrkB-hFc
T1 sequence (chain, as listed by the source limits assumed): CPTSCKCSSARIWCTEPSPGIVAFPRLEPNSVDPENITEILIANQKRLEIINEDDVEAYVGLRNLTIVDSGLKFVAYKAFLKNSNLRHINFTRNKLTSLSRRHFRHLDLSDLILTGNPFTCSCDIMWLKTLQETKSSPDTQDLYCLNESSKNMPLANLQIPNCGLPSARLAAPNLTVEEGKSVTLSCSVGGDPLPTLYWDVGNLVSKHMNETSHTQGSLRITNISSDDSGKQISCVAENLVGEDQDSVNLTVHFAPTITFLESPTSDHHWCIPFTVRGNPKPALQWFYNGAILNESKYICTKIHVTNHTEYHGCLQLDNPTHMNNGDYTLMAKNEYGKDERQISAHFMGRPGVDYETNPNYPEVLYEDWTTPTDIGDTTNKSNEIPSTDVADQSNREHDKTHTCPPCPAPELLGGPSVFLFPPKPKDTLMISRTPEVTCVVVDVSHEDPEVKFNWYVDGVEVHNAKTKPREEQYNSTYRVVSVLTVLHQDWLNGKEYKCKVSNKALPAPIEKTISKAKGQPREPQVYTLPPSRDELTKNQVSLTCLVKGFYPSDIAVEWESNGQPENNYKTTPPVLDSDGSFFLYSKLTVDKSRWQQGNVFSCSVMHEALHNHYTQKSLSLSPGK
Protocol: Blocking of BDNF or NT-4 from binding to TrkB by anti-human TrkB or anti-mouse TrkB antibodies was evaluated using a real-time bio-layer interferometry (BLI) based Octet HTX instrument. The entire study was performed in 10 mM HEPES pH 7.4, 300 mM NaCl, 3 mM EDTA, 1 mg/mL BSA, 0.02% NaN3 and 0.05% v/v Surfactant Tween-20 (HBS-EBT running buffer) at 25° C. All the samples were dispensed in a 384 tilted well plate and the plate was placed on the orbital shaker with the shake speed of 1000 rpm. hTrkB.mFc was captured on anti-mFc (AMC) Octet sensors while hTrkB.hFc or mTrkB.hFc were captured on anti-hFc (AHC) Octet sensors by dipping in wells containing 10 μg/mL of TrkB reagents for 2 minutes. hTrkB.mFc or hTrkB.hFc captured Octet biosensors were saturated by dipping in wells containing 300 nM of different TrkB mAbs for 4 minutes followed by dipping Octet biosensors in wells containing 20 nM of BDNF, hNT-4, or mNT-4 for 2 minutes. Binding of BDNF, hNT-4, or mNT-4 to the complex of TrkB and different TrkB mAbs was determined using Scrubber 2.0c analysis software.

mouse TrkB.hFc [2] = target: T1, mouse TrkB.hFc; test: blocking ELISA, mouse TrkB.hFc pre-mixed with mAb, plate-coated BDNF
Protocol: Experiments were carried out using the following procedure. Human BDNF was coated at a concentration of 0.5 μg/mL (for blocking mouse TrkB.hFc interaction) or 0.3 μg/mL (for blocking rat TrkB.mmh interaction) in PBS on 96-well microtiter plate and incubated overnight at 4° C. […] In a 96-well dilution plate, 850 pM mouse TrkB.hFc or rat TrkB.mmh was mixed with the three-fold serially diluted anti-mouse TrkB antibodies and control antibody. The final antibody concentrations ranged from 1.69 pM to 100 nM. The protein-antibody mix was incubated at room temperature (RT) for 1 hour. The pre-bound mix was then transferred in duplicates to microtiter plates coated with BDNF. A control containing assay buffer alone was included to calculate the baseline of the assay. The ELISA plates were incubated at RT for 1 hour and then washed with plate washing solution. Plate-bound mouse TrkB.hFc was detected with HRP-conjugated goat anti-human Fcγ fragment specific antibody (Jackson Immunoresearch) and rat TrkB.mmh was detected with HRP-conjugated anti-histidine antibody (Qiagen). The plates were incubated with detection antibody for 1 hour at RT and then washed with plate washing solution. The assay plates were developed with TMB colorimetric substrates according to the manufacturer's recommended procedure.
The absorbance at 450 nm for each well was recorded and plotted as a function of the concentration of antibody. Data was analyzed in GraphPad Prism software using a four-parameter logistic equation over an 11-point dose response curve and IC₅₀ values were calculated. […] Percent blockade at maximum concentration of the antibody tested was calculated as an indicator of the ability of the antibodies to block the binding of TrkB to BDNF on the plate relative to the baseline of the assay. Binding signal of 850 pM mouse or rat TrkB in absence of the antibody was defined as 100% binding or 0% blocking. The baseline signal of assay buffer alone was defined as 0% binding or 100% blocking.

[3] = target: T2, human TrkB extracellular domain expressed with a C-terminal mouse IgG2a Fc tag (human); test: BLI Octet, captured hTrkB.mFc saturated with BDNF, 300 nM mAb
T2 construct: also called hTrkB-mFc; hTrkB.mFc
T2 sequence (chain, as listed by the source limits assumed): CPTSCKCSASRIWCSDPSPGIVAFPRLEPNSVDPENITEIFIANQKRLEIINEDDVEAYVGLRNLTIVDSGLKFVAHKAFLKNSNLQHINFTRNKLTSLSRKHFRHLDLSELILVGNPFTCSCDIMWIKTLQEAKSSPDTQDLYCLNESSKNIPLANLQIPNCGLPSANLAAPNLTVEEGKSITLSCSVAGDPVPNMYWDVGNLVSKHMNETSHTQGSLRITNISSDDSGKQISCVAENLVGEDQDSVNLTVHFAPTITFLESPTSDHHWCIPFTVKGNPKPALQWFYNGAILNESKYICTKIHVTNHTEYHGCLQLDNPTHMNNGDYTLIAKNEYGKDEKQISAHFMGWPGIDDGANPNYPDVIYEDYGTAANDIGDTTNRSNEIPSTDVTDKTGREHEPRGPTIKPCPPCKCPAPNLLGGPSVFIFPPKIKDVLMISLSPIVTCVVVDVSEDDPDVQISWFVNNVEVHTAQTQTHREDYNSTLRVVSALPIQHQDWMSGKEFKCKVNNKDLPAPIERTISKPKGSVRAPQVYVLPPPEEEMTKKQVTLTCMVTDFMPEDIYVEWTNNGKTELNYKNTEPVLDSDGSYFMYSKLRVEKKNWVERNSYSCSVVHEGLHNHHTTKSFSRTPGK
Protocol: Blocking of anti-human TrkB or anti-mouse TrkB antibodies from binding to TrkB by BDNF or NT-4 was evaluated using a real-time bio-layer interferometry (BLI) based Octet HTX instrument. The entire study was performed in 10 mM HEPES pH 7.4, 300 mM NaCl, 3 mM EDTA, 1 mg/mL BSA, 0.02% NaN3 and 0.05% v/v Surfactant Tween-20 (HBS-EBT running buffer) at 25° C. All the samples were dispensed in a 384 tilted well plate and the plate was placed on the orbital shaker with the shake speed of 1000 rpm. hTrkB.mFc was captured on anti-mFc (AMC) Octet sensors while hTrkB.hFc or mTrkB.hFc were captured on anti-hFc (AHC) Octet sensors by dipping in wells containing 10 μg/mL of TrkB reagents for 2 minutes. hTrkB.mFc or hTrkB.hFc captured Octet biosensors were saturated by dipping in wells containing 20 nM of BDNF, hNT-4, or mNT-4 for 2 minutes followed by dipping Octet biosensors in wells containing 300 nM of different TrkB mAbs for 4 minutes. Binding of TrkB mAbs to the complex of TrkB and BDNF, hNT-4, or mNT-4 was determined using Scrubber 2.0c analysis software.

Binder	mAb Binding (nm) (mouse TrkB.hFc [1])	% Blockade with 100 nM antibody (mouse TrkB.hFc [2]) [%]	antibody Binding (nm) [3] [nm]	IC50 (mouse TrkB.hFc [2]) [nM]
B1	0.41	11.6		
B2			0.22	
B3			0.2	
B4			0.26	
B5	0.413	29.7		
B6	0.4	91.5		0.18
